Experimental data as given in patent US20250222068A1, “COMPOSITION FOR PREVENTING OR TREATING LUPUS COMPRISING RECOMBINANT STABILIZED GALECTIN-9 PROTEIN” (GBIOLOGICS INC., priority 2022, published 2025).

What was measured:
[1] = test system: MRL/FAS^lpr mice; assay: Histomorphological evaluation of renal tissue (H&E staining); assay type: in vivo; settings: 9 weeks, FIG. 6; for inflammatory cell infiltration within the glomeruli: H&E
Description: Specifically, after the completion of the experiment, the experimental animals of <1-1> were sacrificed, and renal tissues were collected. The collected renal tissues were fixed and dehydrated in 10% formaldehyde and subsequently embedded in paraffin. The fixed renal tissues were sectioned to a thickness of 2 μm and stained with hematoxylin and eosin (H&E). The sectioned tissues were covered with a coverslip and observed under an optical microscope at 400× magnification. Four regions were imaged for each tissue, and two or more researchers assigned scores based on the evaluation items and criteria for histomorphological assessment shown in [Table 3]. The average of the researchers' scores was determined as the scoring value, and the mean of the scoring values for the four regions was calculated as the final score for each tissue.

[2] = test system: MRL/FAS^lpr mice; assay: Spleen weight in an in vivo model of systemic lupus erythematosus; settings: sGal-9 2 mg/kg SC once per week, 9 weeks, FIG. 5
Description: Additionally, after the completion of the experiment, the experimental animals from <1-1> were sacrificed, and the spleens were extracted for weight measurement.

[3] = test system: anti-dsDNA antibodies; assay: Plasma anti-dsDNA antibody levels (ELISA) in an in vivo model of systemic lupus erythematosus; set-up: species or system mice; settings: 9 weeks, FIG. 8
Procedure: Anti-dsDNA antibodies are a type of antinuclear antibody (ANA) that target intracellular nuclear components and are present at high titers in systemic lupus erythematosus (SLE). These antibodies are associated with the persistent progression of kidney inflammation and damage.
Specifically, after the completion of the experiment, cardiac blood collection was performed on the experimental animals from <1-1>. The collected blood was allowed to coagulate for 30 minutes using a capillary blood collection tube (Cat. 365967, BD) and then centrifuged at 6,000×g for 10 minutes to obtain plasma. The obtained plasma was diluted at a ratio of 1:2,500, and the concentration of anti-dsDNA antibodies was measured using a Mouse Anti-dsDNA IgG Antibody ELISA Kit (Cat. 3031, Chondrex) according to the manufacturer's protocol.

[4] = test system: MRL/FAS^lpr mice; assay: IgG immunofluorescence staining of renal tissue; assay type: in vivo; settings: 9 weeks, FIG. 7
Procedure: Additionally, the collected kidney tissues were frozen, sectioned at a thickness of 4 μm, and fixed in cold acetone for 5 minutes, followed by two washes with phosphate-buffered saline (PBS) for 5 minutes each. To eliminate non-specific reactions, blocking was performed for 30 minutes using a PBS solution containing 1% bovine serum albumin and 0.05% Tween-20. The sections were then incubated at room temperature for 1 hour with FITC-conjugated goat anti-mouse IgG antibody (1:200, AP308F, Merck Millipore). After three washes with PBS for 5 minutes each, nuclear staining was performed using DAPI, and the sections were covered with a cover glass using mounting medium. The samples were then examined using a confocal laser scanning microscope (C2 Plus, Nikon). […] Furthermore, it was confirmed that the glomerular lesion scores decreased in the positive control group (Mycophenolate) and the sGal-9 treatment groups (sGal-9 2 mg/kg and sGal-9 4 mg/kg) compared to the negative control group (Vehicle).

[5] = test system: MRL/FAS^lpr mice; assay: Clinical indicators (skin, lymphadenopathy, proteinuria scores) in an in vivo model of systemic lupus erythematosus; settings: 9 weeks; for reduction in skin lesions compared to positive control (Mycophenolate) / skin lesions (skin score) compared to negative control (Vehicle): FIG. 2; for inhibitory effect on lymphadenopathy compared to positive control (Mycophenolate) / lymphadenopathy score compared to negative control (Vehicle): FIG. 3; for proteinuria compared to negative control (Vehicle): FIG. 4
Description: Specifically, the occurrence and severity of lupus were regularly observed from group allocation to the end of the experiment in the experimental animals from <1-1> and evaluated according to the criteria shown in [Table 2].

[6] = sGal-9 2 mg/kg SC once per week
[7] = sGal-9 4 mg/kg SC once per week

B1: sGal-9: recombinant stabilized galectin-9 protein of Sequence No. 1: linker entirely deleted, CCRD positions 1 to 10 deleted, alanine 13 substituted with proline (protein)
chain: MAFSGSQAPYLSPAVPFSGTIQGGLQDGLQITVNGTVLSSSGTRFAVNFQTGFSGNDIAFHFNPRFEDGGYVVCNTRQNGSWGPEERKTHMPFQKGMPFDLCFLVQSSDFKVMVNGILFVQYFHRVPFHRVDTISVNGSVQLSYISFQHPPYPMPFITTILGGLYPSKSILLSGTVLPSAQRFHINLCSGNHIAFHLNPRFDENAVVRNTQIDNSWGSEERSLPRKMPFVRGQSFSVWILCEAHCLKVAVDGQHLFEYYHRLRNLPTINRLEVGGDIQLTHVQT
modifications: sGal-9
glomerular lesion scores compared to negative control (Vehicle) [1, 6]: decreased
inflammatory cell infiltration within the glomeruli [1, 6]: reduction
glomerular lesion scores compared to negative control (Vehicle) [1, 7]: decreased
inflammatory cell infiltration within the glomeruli [1, 7]: reduction
spleen weight compared to negative control (Vehicle) [2]: decreased
concentration of anti-dsDNA antibodies in plasma compared to negative control (Vehicle) [3, 6]: decreased
concentration of anti-dsDNA antibodies in plasma compared to negative control (Vehicle) [3, 7]: decreased
reduction in anti-dsDNA antibody levels compared to positive control (Mycophenolate) [3, 7]: superior reduction
IgG deposition in the kidney compared to negative control (Vehicle) [4, 6]: decreased
IgG deposition in the kidney compared to negative control (Vehicle) [4, 7]: decreased
reduction in skin lesions compared to positive control (Mycophenolate) [5, 6]: more pronounced
skin lesions (skin score) compared to negative control (Vehicle) [5, 6]: reduced
inhibitory effect on lymphadenopathy compared to positive control (Mycophenolate) [5, 6]: more pronounced
lymphadenopathy score compared to negative control (Vehicle) [5, 6]: decreased
proteinuria compared to negative control (Vehicle) [5, 6]: decreased
reduction in skin lesions compared to positive control (Mycophenolate) [5, 7]: more pronounced
skin lesions (skin score) compared to negative control (Vehicle) [5, 7]: reduced
inhibitory effect on lymphadenopathy compared to positive control (Mycophenolate) [5, 7]: more pronounced
lymphadenopathy score compared to negative control (Vehicle) [5, 7]: decreased
proteinuria compared to negative control (Vehicle) [5, 7]: decreased
